Reference: the supplement of paper PMC12764529
± gives the half width of the 95% confidence interval.

Assay: folding stability dG unfold from trypsin proteolysis; higher = more stable
Summary of the method: (§1)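 K50 was inferred by Bayesian fitting of sequencing counts obtained after protease digestion of designed mini-proteins. Unfolding free energy was derived by comparison with a sequence-predicted unfolded-state K50 and a shared folded-state K50, for each protease or both combined. The mini-proteins were under 80 residues, had no cysteine, were carried in a PA-tagged cDNA display construct, and were kept only if AlphaFold2 dimer inter-PAE exceeded 15.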

Sequence	folding stability dG unfold
SAGGSAEEEVYRVRVTVTYRNPETGEVVEEVELVIEVEKGKTVEEVARELAKKLNVDRVEVELVPPSAGGSA [r15_540_TrROS_Hall]	3.65 ± 0.11 kcal/mol
SAGGSANWRPIEIELMIGIKSKEQAKEWAEEIADNFPGIKDVEVEEFPDPDGHVMVAVDVKFYVPESAGGSA [r15_726_TrROS]	0.755 ± 0.057 kcal/mol
SAGGSAGGNIKVKVPYERHPDYYYMTVTIYDPGDDKKLELSYMFPPGTKMPAEEWARDIVKDILSAGGSAGG [r6_234_TrROS]	0.789 ± 0.091 kcal/mol
SAGGSSMTVTKLPTNKTVTTRPLPSSSSVTTTTTFDPNSPVATVTTTDTSSDTSTTTTVPLGPGAFSAGGSA [r2_114_JUSTAS]	0.783 ± 0.035 kcal/mol
SAGGSAGGSAGMTVTETPVLVRYPEDGSVRPFTLTTSPEPGTLTLDLPPAEWPPLEITPPGSAGGSAGGSAG [r3_454_JUSTAS]	-0.0964 ± 0.12 kcal/mol
SPPITFFRVPAEYDEPNGKRTIKVRIWRIRDVEKDPNGGPKMDMEPQPVTFKLPVPPGAPIPPGDWIFAFSA [r9_277_TrROS]	1.57 ± 0.16 kcal/mol
SAGGSAGGSAGGSTITISPEQPVEGLTIELDGKTIKVVSYTPEPKEGEPLLKVTVERLDSAGGSAGGSAGGS [r10_1098_JUSTAS]	-1.28 ± 0.86 kcal/mol
SAGGSAGGMKPGEEKEITLPDGSKIKVRIKDGKLEIEFENGERKEIEIKPGEKIEIKLPKGVKPSAGGSAGG [r6_970_TrROS_Hall]	1.4 ± 0.076 kcal/mol
SAGGSAAVGTSKGANVVTVRVEELEDKVVVYRYDPATGTVRVIVIDKPTGKALETKTFPVLPDQDASAGGSA [r15_425_TrMRF]	1.01 ± 0.018 kcal/mol
SAGGSAGGSELPIKEITVTSYDPKTGKYTVTITQGEGPTYTTTATSPEEVKKRYPDVKVTTSGSAGGSAGGS [r12_403_JUSTAS]	0.434 ± 0.053 kcal/mol
SAGGSAGGSAGGKPKTIRIKVYNEETGEVVTLEFPEGMSLEEVKKLLEALPNLKVVEIEPSAGGSAGGSAGG [r7_624_TrROS_Hall]	4.79 ± 0.41 kcal/mol
SAGEKIKEKIKEILKELFPDAEVEIKTLPDGTIIIKLKKDKKIIVIKKTKDGKIKIVKVMTAEELKKLSSAG [r5_852_TrROS_Hall]	2.15 ± 0.079 kcal/mol
SAGGSAGGSAGGNWYIIIYFPPGRKRIIPFDSPEEMREEMKENGMPIKIMPKEDAEKLLSAGGSAGGSAGGS [r10_66_TrROS]	0.848 ± 0.078 kcal/mol
SAGGSAGGSMKWTSIASYPHPDMVVHVIKFEGGGELTFPAPFEDLVEIAEKFDLDLEFTGDHPSAGGSAGGS [r12_676_TrMRF]	0.45 ± 0.072 kcal/mol
SAGGSAGGSAMDVFTAALNNKELEEAIKKASPDEKEIEIELPGGKKIRIFRTDDGGYIFEPSAGGSAGGSAG [r3_124_TrMRF]	1.8 ± 0.055 kcal/mol
SAGGSARPLYIKVQIRNPPNGKKKTIEIPIENMPPGDPEYYKEMARSIAEELQEQNGMEIEGIEIYSAGGSA [r15_1013_TrROS]	0.731 ± 0.06 kcal/mol
SGMPTLEIEIEFPEVKGETPVPGTDRTLIDTPMKITVTKIENGPPETVEVELPPKLWTEEIEERIKKILGSA [r9_656_JUSTAS]	-0.248 ± 0.66 kcal/mol
SAGGSAGGSAGMPTLKIKVLVRNEETGEWQEVEIELPEGMTLEELLAALPPEQVERVEPVSAGGSAGGSAGG [r11_386_TrROS_Hall]	2.42 ± 0.15 kcal/mol
SMFKNVKSVHIYQDPIKGNNLIIVAETEEGTVELELPEDKAIEFLNTLKEKGFDIKVTHVEYLPVSPEYGSA [r9_607_TrMRF]	2.19 ± 0.064 kcal/mol
SAGGDMYFVTVEIWRPREPDPDGEWKWEPIPITFPFDPDQAEDFAKEIINILQKDGYHVKIKVIPMPSAGGS [r8_10_TrROS]	2.56 ± 0.1 kcal/mol
SAGSMTPEEIRERIEALAEEVGEPPVRVLLKGPSGPLYELDVRFTPEHLEEARRALGVDVVEVEPVPESAGG [r19_50_JUSTAS]	0.297 ± 0.068 kcal/mol

Sequence	folding stability dG unfold
SAGGMTKIEVEYYPEKITVTVTTDNPSENPLDIIKKKTGFKIEGGEVLYPSPNVVVVKLKVDPKDLKKSAGG [r13_498_JUSTAS]	0.443 ± 0.11 kcal/mol
SAGGSAGGSAGGGMPSVTVTPVTLTVPTEVLVDGGPLLREREVRLTVITYPYTNTVVVDSAGGSAGGSAGGS [r10_533_JUSTAS]	-0.474 ± 0.2 kcal/mol
SAGGIVAADVSPDGTVYPISPEAVRALVDAIRDRYGFDVKVTITEARYGDRWVTVIPIELTGLSPEEASAGG [r13_790_TrMRF]	1.31 ± 0.04 kcal/mol
SAGSMTLESEDPSSGLRVTVTVEREPFLLPDGTRVLRRTVTTTVTTPDGEVLESEDVEVVAVLPPDAPLSAG [r5_871_JUSTAS]	2.4 ± 0.085 kcal/mol
SAGGMKIEIKIIDEETGEEITITVTMTPEEIEKLAKELEEKYPGLEIVSVEIEEKDGEIIITIKIKKKSAGG [r13_196_TrROS_Hall]	3.75 ± 0.25 kcal/mol
SAGGSRVEVEVEVEGDTLRVRLRVYSEGGPPLLEAEAELPLGPVPPLPPVEVRVDPLEEEYPAKYFSAGGSA [r2_332_TrMRF]	2.82 ± 0.14 kcal/mol
SAGMTVEELRNLPPGYRVLEVKFDPETGKYTVVVERPDEDGVPHKVTIEVDGLEELEEFFKTGLTELKLSAG [r5_905_TrMRF]	1.73 ± 0.045 kcal/mol
SAGGSAGGSAIPKAPVTVTVTTADGRPALATVEYYPDGVLVTVHYGDKTVTAWVAPADISASAGGSAGGSAG [r3_373_TrMRF]	0.864 ± 0.053 kcal/mol
SAGMTVKTEVHTTTLPETGLVRTEETVTYPDGSVIRRTGDSNPETGEVTTTVTTPDGTLLATETTTITPSAG [r14_524_JUSTAS]	-0.585 ± 0.072 kcal/mol
SAGGSMLSTEPKETDDEIKVTKIYYPEEPIEVTLTTDPDTDLVTATSPSSTATIDAKTGKTTTTPSSSSAGG [r13_416_JUSTAS]	-0.285 ± 0.1 kcal/mol
SAGGKIEEILKKLNLKPGEKAKIKDIKIEVKTVTVTEKKYKNGKLVEEKEKTVTVVKIEIKIELEKPKSAGG [r13_482_TrROS_Hall]	2.6 ± 0.18 kcal/mol
SAGGSAGGSAGGKVHPDQPVKLRLTFTVSGVYYDENKPRVETKPVTVEFTALAPDEDALSAGGSAGGSAGGS [r10_745_TrMRF]	0.0543 ± 0.12 kcal/mol
SAGGSAGGMITVNSEEEAKELEAELKEKGYKAEVTPKTGKNGPYYLITLTPIPKKKKSTKKSKLSAGGSAGG [r6_182_JUSTAS]	1.16 ± 0.095 kcal/mol
SAGGSAGGSAGGKIVIELPKELEGLTAEELAELLKKEFGEKGLKVTVVEKDGKLYLVIDSAGGSAGGSAGGS [r10_579_TrROS_Hall]	3.43 ± 0.25 kcal/mol
SAGGMKPKEVIEIEITLPDGRKIRIRLVKKDGKLYLFIEVPEENEEARELAEELAKKLPGVEVEVFEPSAGG [r13_34_TrROS_Hall]	2.41 ± 0.1 kcal/mol
SAGGSAGGKITLLDEEEIEEVAKELGIDPENIRVIKVENEIIAILSKAKPLTPEKLKEIVEKLKSAGGSAGG [r6_243_JUSTAS]	1.06 ± 0.021 kcal/mol
SAGGMKEIEIDIPLENGEPAKIRIILLNLPDKPRAFIDIESKILPKEEIAKIITKLLPEEIKEVVIDESAGG [r13_404_TrMRF]	1.03 ± 0.092 kcal/mol
SASTSSISTETESRKISSFTVGDKEYEIYENTTTTTLPDGSVVTTTTLSVKDPSSNVTKTLSSTTTFTPSAG [r14_195_JUSTAS]	2.09 ± 0.044 kcal/mol
SAGGSAGGSAGDKRITIWFPVPPGQPPPTLEEIADELPGFEDVDIDVEMYPNGYYRITIESAGGSAGGSAGG [r17_205_TrROS]	0.812 ± 0.047 kcal/mol
SAGGSAGGSKLKLEIPPGFKNVEIEVLKYNPDNGYIRVKITIYDPNNGKQFTMDRWIPADDLKSAGGSAGGS [r12_964_TrROS]	1.62 ± 0.099 kcal/mol
SAGPEITREFVSYDPETGLRYFEYTLINKKNGKEVKKVKVGYSLYDLASGTERPLPEEELKKRAEEALKSAG [r5_909_JUSTAS]	-0.118 ± 0.13 kcal/mol

Assay: folding stability dG unfold from chymotrypsin proteolysis; higher = more stable
Summary of the method: as §1

Sequence	folding stability dG unfold
SAGGSAEEEVYRVRVTVTYRNPETGEVVEEVELVIEVEKGKTVEEVARELAKKLNVDRVEVELVPPSAGGSA [r15_540_TrROS_Hall]	4.52 ± 0.091 kcal/mol
SAGGSANWRPIEIELMIGIKSKEQAKEWAEEIADNFPGIKDVEVEEFPDPDGHVMVAVDVKFYVPESAGGSA [r15_726_TrROS]	0.999 ± 0.031 kcal/mol
SAGGSAGGNIKVKVPYERHPDYYYMTVTIYDPGDDKKLELSYMFPPGTKMPAEEWARDIVKDILSAGGSAGG [r6_234_TrROS]	1.29 ± 0.1 kcal/mol
SAGGSSMTVTKLPTNKTVTTRPLPSSSSVTTTTTFDPNSPVATVTTTDTSSDTSTTTTVPLGPGAFSAGGSA [r2_114_JUSTAS]	0.892 ± 0.06 kcal/mol
SAGGSAGGSAGMTVTETPVLVRYPEDGSVRPFTLTTSPEPGTLTLDLPPAEWPPLEITPPGSAGGSAGGSAG [r3_454_JUSTAS]	-0.486 ± 0.33 kcal/mol
SPPITFFRVPAEYDEPNGKRTIKVRIWRIRDVEKDPNGGPKMDMEPQPVTFKLPVPPGAPIPPGDWIFAFSA [r9_277_TrROS]	0.315 ± 0.35 kcal/mol
SAGGSAGGSAGGSTITISPEQPVEGLTIELDGKTIKVVSYTPEPKEGEPLLKVTVERLDSAGGSAGGSAGGS [r10_1098_JUSTAS]	-0.489 ± 0.33 kcal/mol
SAGGSAGGMKPGEEKEITLPDGSKIKVRIKDGKLEIEFENGERKEIEIKPGEKIEIKLPKGVKPSAGGSAGG [r6_970_TrROS_Hall]	2.05 ± 0.085 kcal/mol
SAGGSAAVGTSKGANVVTVRVEELEDKVVVYRYDPATGTVRVIVIDKPTGKALETKTFPVLPDQDASAGGSA [r15_425_TrMRF]	1.95 ± 0.047 kcal/mol
SAGGSAGGSELPIKEITVTSYDPKTGKYTVTITQGEGPTYTTTATSPEEVKKRYPDVKVTTSGSAGGSAGGS [r12_403_JUSTAS]	0.786 ± 0.035 kcal/mol
SAGGSAGGSAGGKPKTIRIKVYNEETGEVVTLEFPEGMSLEEVKKLLEALPNLKVVEIEPSAGGSAGGSAGG [r7_624_TrROS_Hall]	3.62 ± 0.11 kcal/mol
SAGEKIKEKIKEILKELFPDAEVEIKTLPDGTIIIKLKKDKKIIVIKKTKDGKIKIVKVMTAEELKKLSSAG [r5_852_TrROS_Hall]	1.01 ± 0.26 kcal/mol
SAGGSAGGSAGGNWYIIIYFPPGRKRIIPFDSPEEMREEMKENGMPIKIMPKEDAEKLLSAGGSAGGSAGGS [r10_66_TrROS]	1.25 ± 0.052 kcal/mol
SAGGSAGGSMKWTSIASYPHPDMVVHVIKFEGGGELTFPAPFEDLVEIAEKFDLDLEFTGDHPSAGGSAGGS [r12_676_TrMRF]	0.28 ± 0.11 kcal/mol
SAGGSAGGSAMDVFTAALNNKELEEAIKKASPDEKEIEIELPGGKKIRIFRTDDGGYIFEPSAGGSAGGSAG [r3_124_TrMRF]	1.32 ± 0.11 kcal/mol
SAGGSARPLYIKVQIRNPPNGKKKTIEIPIENMPPGDPEYYKEMARSIAEELQEQNGMEIEGIEIYSAGGSA [r15_1013_TrROS]	0.023 ± 0.27 kcal/mol
SGMPTLEIEIEFPEVKGETPVPGTDRTLIDTPMKITVTKIENGPPETVEVELPPKLWTEEIEERIKKILGSA [r9_656_JUSTAS]	1.2 ± 0.27 kcal/mol
SAGGSAGGSAGMPTLKIKVLVRNEETGEWQEVEIELPEGMTLEELLAALPPEQVERVEPVSAGGSAGGSAGG [r11_386_TrROS_Hall]	3.07 ± 0.059 kcal/mol
SMFKNVKSVHIYQDPIKGNNLIIVAETEEGTVELELPEDKAIEFLNTLKEKGFDIKVTHVEYLPVSPEYGSA [r9_607_TrMRF]	2.453 ± 0.011 kcal/mol
SAGGDMYFVTVEIWRPREPDPDGEWKWEPIPITFPFDPDQAEDFAKEIINILQKDGYHVKIKVIPMPSAGGS [r8_10_TrROS]	3.75 ± 0.28 kcal/mol
SAGSMTPEEIRERIEALAEEVGEPPVRVLLKGPSGPLYELDVRFTPEHLEEARRALGVDVVEVEPVPESAGG [r19_50_JUSTAS]	-0.512 ± 0.32 kcal/mol
